Measured values taken from PMC12399645 (Frontiers in Immunology, 2025).

B1: KBA2402 (antibody, V domains shown)
VH: EVQLVESGGGLVQPGRSLGLSCTTSGFTFGDFAMSWFRQAPGKGLEWVGFIRSKAYGGATQYAASVKGRFTISRDDSKSIAYLQMNSLKTEDTAVYYCTRAGEMATTVNRQFDYWGQGTLVTVSS
VL: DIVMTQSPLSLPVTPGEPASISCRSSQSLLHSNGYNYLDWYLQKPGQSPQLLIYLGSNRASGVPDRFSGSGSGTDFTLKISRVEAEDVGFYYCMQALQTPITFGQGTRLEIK
notes: copies: 2 + 2
B2: KBA2401 (antibody, V domains shown)
VH: EVQLVQSGAEVKKPGESLKISCKGSGYTFSYFWIGWVRQMPGKGLEWMGIIYPGDSDTRYSPSFQGQVTISADKSISTAYLQWSSLKASDTAMYYCARVGIEMATTYFGFWGQGTMVTVSS
VL: SYVLTQPPSVSVAPGQTARITCGGNNIGSKSVHWYQQRPGQAPVLVVYDDSDRPSEIPERFSGSSSGNTATLTISTVEAGDEADYYCQVWDSSTDHPGVFGGGTKLTVL
notes: copies: 2 + 2
B3: KBA2404 (antibody, V domains shown)
VH: EVQLVESGGGLVQPGGSLRLSCAASGFTVSSNYMSWVRQAPGKGLECVSVIYSGGSTYYGDSVKGRFTISRDNSKNRLYLQMHSLRAEDTAVYFCARIVSDAFDIWGQGTMVTVSS
VL: DIQMTSLLSPLSASVGDRVTITCRASQNINRWLAWYQQKPGKAPKLLIYMASNLESGVPSRFSGSGSGTEFSLTISSLQPDDLATYYCQQYNSYWTSYTFGQGTKLEIK
notes: IgG1 format; copies: 2 + 2
B4: KBA2403 (antibody, V domains shown)
VH: EVQLVESGGGLVQPGGSLRLSCVASGIIVSRNYMNWVRQAPGKGLEWVSVLYSGGTTEYADSVKGRFTISRDNSKNTLFLQMSSLRVEDTAVYFCAREGYGMDVWGQGATVTVSS
VL: DIQLTQSPSFLSASVGDRVTITCRAGQGISTYLAWYQQKPGKAPKLLIYSASTLQSGVPSRFSGSGSGTEFTLTISSLQPEDFATYYCQQLNNYPPAFGGGTKVEIK
notes: IgG1 format; copies: 2 + 2
B5: KBA2402_EVO14 (antibody, V domains shown)
VH: B1 VH
VL: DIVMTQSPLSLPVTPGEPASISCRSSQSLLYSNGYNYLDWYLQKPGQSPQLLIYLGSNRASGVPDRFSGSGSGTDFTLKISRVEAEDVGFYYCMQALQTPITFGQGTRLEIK
notes: copies: 2 + 2
B6: KBA2402_EVO17 (antibody, V domains shown)
VH: B1 VH
VL: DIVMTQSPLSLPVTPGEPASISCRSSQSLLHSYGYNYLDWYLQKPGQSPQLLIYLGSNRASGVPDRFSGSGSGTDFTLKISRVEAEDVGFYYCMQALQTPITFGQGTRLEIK
notes: copies: 2 + 2

target: SARS-CoV-2 spike trimer protein, Wild-type (SARS-CoV-2, original Wild-type …, UniProt P0DTC2, biotin on the Avi-tag (BirA ligase)); assay: ELISA; details: both partners purified

Binder	binding result
B1	binds
B2	binds
B3	binds
B4	binds

same assay, conditions: one partner purified

Binder	binding result
B5	binds
B6	binds
